Common to all, as to experiment: SEC + other: SDS-PAGE
The target of data set [1] is B. amyloliquefaciens BslA_(42-181) (Bacillus amyloliquefaciens FZB42).
In data set [2] the target is B. licheniformis BslA_(40-17g) (Bacillus licheniformis DSM13).
The target of data set [3] is B. pumilus BslA_(37-177) (Bacillus pumilus SAFR-032).
The data set “SEC + other: SDS-PAGE” deals with the molecule itself.

For orientation: stoichiometry N means the number of molecules, sites or subunits per partner or assembly. As for “B. amyloliquefaciens BslA_(42-181) (domain or fragment)”, the stoichiometry N in data set [1] was determined as 2.
On to “B. licheniformis BslA_(40-17g) (domain or fragment)”, for which, in data set [2], the stoichiometry N is 2.
For the molecule “B. pumilus BslA_(37-177) (domain or fragment)”, in data set [3], the stoichiometry N was found to be 2.

B1: B. subtilis BslA_(42-181) (domain or fragment, Bacillus subtilis, UniProt P71014 42-181, looked up)
chain: MRTQSTASLFATITGASKTEWSFSDIELTYRPNTLLSLGVMEFTLPSGFTANTKDTLNGNALRTTQILNNGKTVRVPLALDLLGAGEFKLKLNNKTLPAAGTYTFRAENKSLSIGNKFYAEASIDVAKRSTPPTQPCGCN
B1: the “stoichiometry N” value in “SEC + other: SDS-PAGE” is 2.

These data come from publication doi:10.1101/091884 (bioRxiv, 2016).
